Source: publication PMC7276322

Target: CV30 (human)
Assay: BLI

Work on “SARS-CoV-2 receptor binding domain (from UniProt P0DTC2 319-591) (domain or fragment)” yielded a Kd of 3.6 nM.
